Publication PMC3587310 (Biochemistry, 2013)

Target: the molecule itself
Assay: crystal structure

B1: S. elongatus KaiC A422V mutant protein (natural protein, Synechococcus elongatus, UniProt Q79PF4 1-519, looked up)
chain: MTSAEMTSPNNNSEHQAIAKMRTMIEGFDDISHGGLPIGRSTLVSGTSGTGKTLFSIQFLYNGIIEFDEPGVFVTFEETPQDIIKNARSFGWDLAKLVDEGKLFILDASPDPEGQEVVGGFDLSALIERINYAIQKYRARRVSIDSVTSVFQQYDASSVVRRELFRLVARLKQIGATTVMTTERIEEYGPIARYGVEEFVSDNVVILRNVLEGERRRRTLEILKLRGTSHMKGEYPFTITDHGINIFPLGAMRLTQRSSNVRVSSGVVRLDEMCGGGFFKDSIILATGATGTGKTLLVSRFVENACANKERAILFAYEESRAQLLRNAYSWGMDFEEMERQNLLKIVCAYPESAGLEDHLQIIKSEINDFKPARIAIDSLSALARGVSNNAFRQFVIGVTGYAKQEEITGLFTNTSDQFMGVHSITDSHISTITDTIILLQYVEIRGEMSRAINVFKMRGSWHDKAIREFMISDKGPDIKDSFRNFERIISGSPTRITVDEKSELSRIVRGVQEKGPES
modifications: phosphothreonine at T432 in all six subunits; S431 not phosphorylated
  stoichiometry N: 6
